Results from the Human Domainome abundance scans (Beltran et al. 2025).
± gives the uncertainty stated by the source.

B1: Transcription factor SOX-11, residues 50 to 117; numbered along this chain, P35716 (parent)
chain: KRPMNAFMVWSKIERRKIMEQSPDMHNAEISKRLGKRWKMLKDSEKIPFIREAERLRLKHMADYPDYK

Variants of: B1
Test: abundance fitness (aPCA) (normalised: wild type 0, dead -1); higher = more abundant; growth selection in yeast, the domain comes from the species named
Settings: Homo sapiens

Point of comparison: R2N, abundance fitness 0.166 ± 0.059. Against it:
- F7I — lower, -0.795 ± 0.1
- F7V — lower, -1.03 ± 0.14
- F7R — lower, -0.478 ± 0.082
- F7D — lower, -0.848 ± 0.13
- F7L — lower, -0.958 ± 0.12
- F7T — lower, -0.839 ± 0.12
- F7K — lower, -0.887 ± 0.21
- F7Q — lower, -0.476 ± 0.21
- F7W — within error, -0.018 ± 0.17
- F7Y — lower, -0.203 ± 0.059
- F7C — lower, -0.534 ± 0.098
- F7G — lower, -0.765 ± 0.12
- F7A — lower, -0.75 ± 0.12
- F7E — lower, -0.689 ± 0.32
- F7N — lower, -0.795 ± 0.09
- F7P — lower, -0.967 ± 0.16
- F7H — lower, -0.879 ± 0.12
- K1L — lower, -0.137 ± 0.11
- K1M — lower, -0.421 ± 0.2
- K1G — within error, 0.103 ± 0.058
- K1N — within error, 0.077 ± 0.06
- K1W — within error, 0.006 ± 0.2
- K1S — lower, -0.026 ± 0.067
- K1I — lower, -0.048 ± 0.062
- K1T — within error, 0.032 ± 0.082
- K1F — within error, 0.113 ± 0.076
- K1Y — lower, 0.032 ± 0.065
- N5H — lower, -0.621 ± 0.09
- N5V — lower, -0.491 ± 0.069
- N5P — lower, -0.544 ± 0.089
- N5I — lower, -0.601 ± 0.071
- N5E — lower, -0.172 ± 0.16
- N5G — lower, -0.433 ± 0.069
- N5W — lower, -0.438 ± 0.13
- N5Y — lower, -0.524 ± 0.061
- N5S — within error, 0.104 ± 0.045
- N5K — lower, -0.956 ± 0.26
- N5C — lower, -0.321 ± 0.064
- N5D — within error, 0.147 ± 0.055
- N5F — lower, -0.712 ± 0.08
- N5M — lower, -0.724 ± 0.15
- N5L — lower, -0.65 ± 0.075
- N5Q — lower, -0.831 ± 0.27
- N5A — lower, -0.474 ± 0.096
- N5R — lower, -0.852 ± 0.11
- N5T — within error, 0.149 ± 0.056
- R2G — lower, 0.03 ± 0.049
- R2D — within error, 0.146 ± 0.069
- R2F — within error, 0.091 ± 0.075
- R2P — lower, -0.011 ± 0.085
- R2Y — within error, 0.272 ± 0.061
- R2V — within error, 0.118 ± 0.055
- R2I — within error, 0.113 ± 0.055
- R2L — lower, 0.037 ± 0.063
- R2C — lower, 0.041 ± 0.054
- R2T — within error, 0.282 ± 0.061
- R2M — within error, 0.158 ± 0.096
- R2W — lower, -0.97 ± 0.34
- R2E — lower, -0.165 ± 0.15
- R2S — within error, 0.064 ± 0.047
- R2A — lower, -0.178 ± 0.079
- R2K — lower, -0.041 ± 0.12
- R2H — within error, 0.086 ± 0.077
- R2Q — within error, 0.037 ± 0.14
- P3N — within error, 0.199 ± 0.077
- P3E — within error, 0.073 ± 0.18
- P3L — lower, -0.118 ± 0.085
- P3H — lower, -0.085 ± 0.077
- P3S — within error, 0.097 ± 0.062
- P3C — lower, -0.442 ± 0.088
- P3F — lower, -0.292 ± 0.12
- P3A — lower, -0.544 ± 0.096
- P3M — lower, -0.704 ± 0.45
- P3T — lower, -0.083 ± 0.076
- P3R — lower, -0.407 ± 0.077
- P3V — lower, -0.294 ± 0.086
- P3Q — within error, 0.119 ± 0.21
- P3I — lower, -0.279 ± 0.1
- P3K — within error, -0.044 ± 0.18
- P3D — higher, 0.525 ± 0.076
- M8F — lower, -0.14 ± 0.051
- M8L — lower, -0.039 ± 0.047
- M8Y — lower, -0.089 ± 0.051
- M8A — within error, 0.101 ± 0.068
- M8P — lower, -0.609 ± 0.09
- M8W — lower, -0.446 ± 0.18
- M8Q — higher, 0.324 ± 0.083
- M8E — within error, 0.299 ± 0.15
- M8V — lower, -0.131 ± 0.062
- M8N — lower, -0.111 ± 0.054
- M8G — lower, -0.079 ± 0.067
- M8I — lower, -0.117 ± 0.047
- M8C — lower, -0.168 ± 0.061
- M8K — lower, -0.394 ± 0.16
- M8T — within error, 0.165 ± 0.062
- M8H — lower, -0.033 ± 0.059
- M8R — lower, -0.239 ± 0.069
- M8D — higher, 0.456 ± 0.069
- V9Q — lower, -0.894 ± 0.25
- V9M — lower, -0.61 ± 0.17
- V9D — lower, -0.671 ± 0.12
- V9P — lower, -0.891 ± 0.16
- V9Y — lower, -0.558 ± 0.069
- V9L — within error, 0.177 ± 0.054
- V9G — lower, -0.687 ± 0.11
- V9F — lower, -0.63 ± 0.07
- V9S — lower, -0.847 ± 0.079
- V9H — lower, -0.402 ± 0.087
- V9R — lower, -0.926 ± 0.14
- V9I — lower, 0.037 ± 0.053
- V9C — lower, -0.448 ± 0.087
- V9A — lower, -0.644 ± 0.12
- V9W — lower, -0.411 ± 0.19
- V9T — lower, -0.777 ± 0.12
- V9N — lower, -0.734 ± 0.089
- W10N — lower, -0.594 ± 0.079
- W10G — lower, -0.797 ± 0.14
- W10I — lower, -0.961 ± 0.099
- W10P — lower, -0.589 ± 0.13
- W10L — lower, -0.819 ± 0.095
- W10V — lower, -0.872 ± 0.13
- W10Q — lower, -1.09 ± 0.33
- W10F — lower, -0.253 ± 0.054
- W10D — lower, -0.781 ± 0.14
- W10T — lower, -0.576 ± 0.097
- W10M — lower, -0.345 ± 0.14
- W10S — lower, -0.913 ± 0.1
- W10C — lower, -1.01 ± 0.14
- W10H — lower, -0.783 ± 0.11
- W10A — lower, -0.543 ± 0.12
- W10K — lower, -0.627 ± 0.23
- M4F — lower, -0.186 ± 0.053
- M4S — lower, -0.334 ± 0.052
- M4R — lower, -0.874 ± 0.11
- M4Q — lower, -0.248 ± 0.15
- M4N — lower, -0.292 ± 0.058
- M4V — lower, 0.005 ± 0.051
- M4E — within error, -0.004 ± 0.18
- M4H — lower, -0.423 ± 0.086
- M4T — lower, -0.145 ± 0.079
- M4W — lower, -0.251 ± 0.13
- M4I — within error, 0.158 ± 0.05
- M4L — lower, -0.188 ± 0.064
- M4K — lower, -0.539 ± 0.23
- M4D — within error, 0.059 ± 0.065
- M4Y — lower, -0.256 ± 0.06
- M4C — lower, -0.787 ± 0.11
- M4G — lower, -0.28 ± 0.063
- A6S — lower, -0.531 ± 0.068
- A6M — lower, -0.831 ± 0.24
- A6W — lower, -1.29 ± 0.34
- A6E — lower, -0.338 ± 0.24
- A6N — lower, -0.976 ± 0.11
- A6C — lower, -0.634 ± 0.082
- A6R — lower, -0.776 ± 0.17
- A6F — lower, -0.987 ± 0.1
- A6P — lower, -0.524 ± 0.11
- A6H — lower, -0.553 ± 0.088
- A6T — lower, -0.767 ± 0.11
- A6V — lower, -0.629 ± 0.082
- A6L — lower, -0.666 ± 0.087
- A6Q — lower, -1.05 ± 0.33
- A6I — lower, -0.934 ± 0.12
- A6G — lower, -0.03 ± 0.06
- A6D — lower, -0.751 ± 0.12
- A6Y — lower, -0.827 ± 0.096
